# Reference: article PMC2568865, “Hsp90-Dependent Activation of Protein Kinases Is Regulated by Chaperone-Targeted Dephosphorylation of Cdc37” (Molecular Cell, 2008)
# B1: His6-tagged Cdk4 (enzyme, human, UniProt P11802 1-303, looked up)
# chain: MATSRYEPVAEIGVGAYGTVYKARDPHSGHFVALKSVRVPNGGGGGGGLPISTVREVALLRRLEAFEHPNVVRLMDVCATSRTDREIKVTLVFEHVDQDLRTYLDKAPPPGLPAETIKDLMRQFLRGLDFLHANCIVHRDLKPENILVTSGGTVKLADFGLARIYSYQMALTPVVVTLWYRAPEVLLQSTYATPVDMWSVGCIFAEMFRRKPLFCGNSEADQLGKIFDLIGLPPEDDWPRDVSLPRGAFPPRGPRPVQSVVPEMEESGAQLLLEMLTFNPHKRISAFRALQHSYLHKDEGNPE
# notes: Cdk4, Cdc37/Hsp90-dependent protein kinase; also called K (in C-K and H-C-K); source: Sf9 cells, baculovirus, co-expressed with human Cdc37; purified via the His6 tag as C-K and H-C-K complexes; not shown: His6, N-terminal, kept
# B2: pSer13-Cdc37 (E. coli-expressed Cdc37 phosphorylated in vitro with CK2) (natural protein, human, UniProt Q16543 1-378, looked up)
# chain: MVDYSVWDHIEVSDDEDETHPNIDTASLFRWRHQARVERMEQFQKEKEELDRGCRECKRKVAECQRKLKELEVAEGGKAELERLQAEAQQLRKEERSWEQKLEEMRKKEKSMPWNVDTLSKDGFSKSMVNTKPEKTEEDSEEVREQKHKTFVEKYEKQIKHFGMLRRWDDSQKYLSDNVHLVCEETANYLVIWCIDLEVEEKCALMEQVAHQTIVMQFILELAKSLKVDPRACFRQFFTKIKTADRQYMEGFNDELEAFKERVRGRAKLRIEKAMKEYEEEERKKRLGPGGLDPVEVYESLPEELQKCFDVKDVQMLQDAISKMDPTDAKYHMQRCIDSGLWVPNSKASEAKEGEEAGPGDPLLEAVPKTGDEKDVSV
# modifications: phosphoserine at 13
# notes: human Cdc37 (p50), phosphorylated on Ser13 by CK2 in vitro; also called phosphorylated Cdc37; pCdc37; source: E. coli, purified, phosphorylated in vitro with CK2 (Promega), further purified on Resource Q
# B3: Cdc37 (E. coli-expressed, unphosphorylated) (natural protein, human, UniProt Q16543 1-378, looked up)
# chain: MVDYSVWDHIEVSDDEDETHPNIDTASLFRWRHQARVERMEQFQKEKEELDRGCRECKRKVAECQRKLKELEVAEGGKAELERLQAEAQQLRKEERSWEQKLEEMRKKEKSMPWNVDTLSKDGFSKSMVNTKPEKTEEDSEEVREQKHKTFVEKYEKQIKHFGMLRRWDDSQKYLSDNVHLVCEETANYLVIWCIDLEVEEKCALMEQVAHQTIVMQFILELAKSLKVDPRACFRQFFTKIKTADRQYMEGFNDELEAFKERVRGRAKLRIEKAMKEYEEEERKKRLGPGGLDPVEVYESLPEELQKCFDVKDVQMLQDAISKMDPTDAKYHMQRCIDSGLWVPNSKASEAKEGEEAGPGDPLLEAVPKTGDEKDVSV
# notes: human Cdc37 (p50), not phosphorylated; also called WT-Cdc37; nonphosphorylated Cdc37; source: E. coli, purified
# Assays:
# [1] = target: T1, Cdc37 (human, Sf9-expressed) dephosphorylated with λ-phosphatase (human, UniProt Q16543 1-378); assay: SEC; purified C-K complex incubated with or without λPP (1:10) for 1 hr at room temperature; Superose 6 HR10/30 in 50 mM Tris pH 7.5, 10 mM KCl, 10 mM MgCl2, 150 mM NaCl, 1 mM EDTA, 3 mM DTT; 1 ml fractions probed by Western blot; details: both partners purified
# T1 construct: human Cdc37 (p50), Ser13 dephosphorylated in vitro by λPP; Same construct as m2 after treatment with λPP; also called dephosphorylated Cdc37; Cdc37 in dephosphorylated C-K or H-C-K complex; source: Sf9 cells, baculovirus; purified in the C-K and H-C-K complexes, then dephosphorylated with λ-phosphatase (NEB)
# T1 sequence (looked up): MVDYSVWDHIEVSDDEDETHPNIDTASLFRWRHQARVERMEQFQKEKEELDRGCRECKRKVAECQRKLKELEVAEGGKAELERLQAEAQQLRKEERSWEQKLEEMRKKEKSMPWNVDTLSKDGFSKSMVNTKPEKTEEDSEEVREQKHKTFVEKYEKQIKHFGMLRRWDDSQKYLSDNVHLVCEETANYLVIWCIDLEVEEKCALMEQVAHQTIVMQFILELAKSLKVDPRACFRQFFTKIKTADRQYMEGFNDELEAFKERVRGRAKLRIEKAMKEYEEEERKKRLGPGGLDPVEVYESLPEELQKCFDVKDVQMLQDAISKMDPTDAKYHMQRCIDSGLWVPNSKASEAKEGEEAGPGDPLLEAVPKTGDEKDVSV
# [2] = target: T2, pSer13-Cdc37 (human Cdc37 expressed in Sf9 cells, phosphorylated on Ser13) (human, UniProt Q16543 1-378, phosphoserine at 13); assay: co-purification (His6 affinity); human Cdc37 and N-terminally His6-tagged Cdk4 co-expressed in Sf9 cells by baculovirus; complexes purified via the His6 tag on Cdk4; Coomassie-stained SDS-PAGE; details: partners not purified
# T2 construct: human Cdc37 (p50), phosphorylated on Ser13 in the insect cells; also called p50; Sf9-expressed Cdc37; source: Sf9 cells, baculovirus; purified in the C-K and H-C-K complexes with His6-Cdk4; free Cdc37 obtained as a by-product of the H-C-K complex purification
# T2 sequence (looked up): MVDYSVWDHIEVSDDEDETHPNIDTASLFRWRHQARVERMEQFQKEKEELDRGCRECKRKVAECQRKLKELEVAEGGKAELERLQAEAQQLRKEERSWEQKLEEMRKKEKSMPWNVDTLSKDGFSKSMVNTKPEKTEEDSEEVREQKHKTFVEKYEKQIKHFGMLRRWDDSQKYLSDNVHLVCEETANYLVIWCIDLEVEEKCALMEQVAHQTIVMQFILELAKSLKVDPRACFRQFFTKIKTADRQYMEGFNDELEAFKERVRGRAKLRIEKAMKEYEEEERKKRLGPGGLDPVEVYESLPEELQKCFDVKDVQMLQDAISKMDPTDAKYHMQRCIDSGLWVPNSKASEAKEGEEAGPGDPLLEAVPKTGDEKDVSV
# [3] = target: T3, full-length human Hsp90α (human, UniProt P07900 1-732); assay: pull-down; GST-PP5 on glutathione Sepharose with Cdc37 or CK2-phosphorylated Cdc37 preincubated with Hsp90α for 1 hr; 4°C, 2 hr; 50 mM HEPES pH 7.5, 150 mM NaCl, 0.1% NP40, BSA; PP5 dephosphorylates Cdc37 during the incubation; details: both partners purified
# T3 construct: human Hsp90α
Binder,binding result [1],binding result [2],binding result [3]
B1,binds,binds,
B2,,,binds
B3,,,binds
